The values that follow come from patent publication US20170058053A1 (Xencor, published 2017).

Experiment [1] addresses T1, HM1.24 antigen on a Biacore chip (UniProt Q10589 49-161, limits assumed).
T1 construct: also called HM1.24 chip
T1 sequence (looked up): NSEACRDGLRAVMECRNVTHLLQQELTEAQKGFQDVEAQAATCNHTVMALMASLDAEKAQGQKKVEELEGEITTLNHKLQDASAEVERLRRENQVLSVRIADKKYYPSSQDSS
In words: SPR (Biacore), 100 nM mAb-Fv injected over a HM1.24 chip. For orientation: In SPR one partner is held on a chip, and binding of the other changes the refractive index at the surface.

The target of experiment [2] is T2, FcγRIIIa, V158 isoform (human, UniProt P08637 17-208, limits assumed).
T2 construct: no change against a named entry is printed; also called FcγRIIIa(158V); V158 FcγRIIIa
T2 sequence (P08637 17-208 F176V limits assumed): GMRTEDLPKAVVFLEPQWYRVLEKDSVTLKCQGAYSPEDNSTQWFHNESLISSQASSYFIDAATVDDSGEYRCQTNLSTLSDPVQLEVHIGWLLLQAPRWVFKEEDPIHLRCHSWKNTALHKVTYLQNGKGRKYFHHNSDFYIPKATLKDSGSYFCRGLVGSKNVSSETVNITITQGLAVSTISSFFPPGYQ
Briefly: SPR (Biacore); the reference value of native IgG1 (280 nM) is cited from the literature.
Description: Affinity of the mAb-Fv for FcγRIIIa was measured using Biacore®. The protein A capture format was used as described above, except that sensorgrams were obtained for a concentration series of receptor analyte in order to calculate an accurate affinity. […] Data were processed by zeroing time and response before the injection of receptor and by subtracting appropriate nonspecific signals (response of reference channel and injection of running buffer). The equilibrium constant was calculated by global fitting of binding data with a 1:1 Langmuir binding model using BIAevaluation software.
Similar binding experiments were carried out for the αHM1.24×αFcγRIIIa mAb-Fv. […] Data were processed by zeroing time and response before the injection of receptor and by subtracting appropriate nonspecific signals. The equilibrium constant was calculated by global fitting of binding data with a 1:1 Langmuir binding model using BIAevaluation software.

The target of experiment [3] is T2, FcγRIIIa, V158 isoform. In words: SPR (Biacore), 9518 captured (protein A by the text, HM1.24 by the legend of FIG. 16), receptor concentration series, 1:1 Langmuir global fit.
Description: (§1) Binding measurements were performed using a Biacore® 3000 instrument (Biacore®). Antibodies were captured onto an immobilized Protein A (Pierce) CM5 biosensor chip (Biacore®), generated using a standard primary amine coupling protocol. All measurements were performed in HBS-EP (0.01 M HEPES pH 7.4, 0.15 M NaCl, 3 mM EDTA, 0.005% v/v surfactant P20), and glycine buffer (10 mM glycine-HCl, pH 1.5) was used for the Protein A surface regeneration. All antibodies (50 nM in HBS-EP) were immobilized on the Protein A surface. Fc receptors were injected over antibody bound surface, followed by a dissociation phase. After each cycle, the Protein A surface was regenerated by injecting glycine buffer (pH 1.5). Data were processed by zeroing time and response before the injection of receptor and by subtracting appropriate nonspecific signals (response of reference channel and injection of running buffer).
Data were processed by zeroing time and response before the injection of receptor and by subtracting appropriate nonspecific signals. The equilibrium constant was calculated by global fitting of binding data with a 1:1 Langmuir binding model using BIAevaluation software.
In experiment [4] the target is T3, FcγRIIb (human, UniProt P31994 43-217, limits assumed).
T3 construct: also called CD32b
T3 sequence (looked up): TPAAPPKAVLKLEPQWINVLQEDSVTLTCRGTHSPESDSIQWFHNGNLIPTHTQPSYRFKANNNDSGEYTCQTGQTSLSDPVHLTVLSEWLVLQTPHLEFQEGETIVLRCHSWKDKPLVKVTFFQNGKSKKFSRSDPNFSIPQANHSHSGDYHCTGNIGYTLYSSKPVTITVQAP
In words: SPR (Biacore); the reference value of native IgG1 (2.3 µM) is cited from the literature.

Experiment [5] concerns the target T3, FcγRIIb. In words: SPR (Biacore), 9547 captured on protein A, receptor concentration series, 1:1 Langmuir global fit.
Description: as §1

B1: 9518 αHM1.24×αFcγRIIIa mAb-Fv (bispecific antibody, IgG1)
heavy 1: QVQLVQSGAEVKKPGASVKVSCKASGYTFTPYWMQWVRQAPGQGLEWMGSIFPGSGDTRYSQSFQGQVTISADKSISTAYMELSRLRSDDTAVYYCARGLRRGGYYFDYWGQGTLVTVSSASTKGPSVFPLAPSSKSTSGGTAALGCLVKDYFPEPVTVSWNSGALTSGVHTFPAVLQSSGLYSLSSVVTVPSSSLGTQTYICNVNHKPSNTKVDKKVEPKSCDKTHTCPPCPAPELLRGPSVFLFPPKPKDTLMISRTPEVTCVVVDVSHEDPEVKFNWYVDGVEVHNAKTKPREEQYNSTYRVVSVLTVLHQDWLNGKEYKCKVSNKARPAPIEKTISKAKGQPREPQVTTLPPSREEMTKNQVSLTCLVKGFYPSDIAVEWESNGQPENNYKTFPPVLDSDGSFFLYSKLTVDKSRWQQGNVFSCSVMHEALHNHYTQKSLSLSPGKSSDKTHTSPPSPGGGGSGGGGSGGGGSGGGGQVTLKESGPGILQPSQTLSLTCSFSGFSLRTSGMGVGWIRQPSGKGLEWLAHIWWDDDKRYNPALKSRLTISKDTSSNQVFLKIASVDTADTATYYCAQINPAWFAYWGQGTLVTVSASGHHHHHH
heavy 2: QVQLVQSGAEVKKPGASVKVSCKASGYTFTPYWMQWVRQAPGQGLEWMGSIFPGSGDTRYSQSFQGQVTISADKSISTAYMELSRLRSDDTAVYYCARGLRRGGYYFDYWGQGTLVTVSSASTKGPSVFPLAPSSKSTSGGTAALGCLVKDYFPEPVTVSWNSGALTSGVHTFPAVLQSSGLYSLSSVVTVPSSSLGTQTYICNVNHKPSNTKVDKKVEPKSCDKTHTCPPCPAPELLRGPSVFLFPPKPKDTLMISRTPEVTCVVVDVSHEDPEVKFNWYVDGVEVHNAKTKPREEQYNSTYRVVSVLTVLHQDWLNGKEYKCKVSNKARPAPIEKTISKAKGQPREPQVYTLPPSREEMTKNQVHLTCLVKGFYPSDIAVEWESNGQPENNYKTTPPVLDSDGSFALYSKLTVDKSRWQQGNVFSCSVMHEALHNHYTQKSLSLSPGKSSDKTHTSPPSPGGGGSGGGGSGGGGSGGGGDIVLTQSPASLAVSLGQRATISCKASQSVDFDGDSFMNWYQQKPGQPPKLLIYTTSNLESGIPARFSASGSGTDFTLNIHPVEEEDTATYYCQQSNEDPYTFGGGTKLELKSGDYKDDDDK
light: DIVMTQSPLSLPVTLGQPASISCKASQDVNTAVAWYLQKPGKSPKLLIYSASNRYTGVPDRITGSGSGTDFTLKISRVEAEDVGVYYCQQHYSTPFTFGSGTKLEIKRTVAAPSVFIFPPSDEQLKSGTASVVCLLNNFYPREAKVQWKVDNALQSGNSQESVTEQDSKDSTYSLSSTLTLSKADYEKHKVYACEVTHQGLSSPVTKSFNRGEC
notes: mAb-Fv, IgG1 G236R/L328R, hetero-Fc TF-HA, Linker 2; copies: 1 + 1 + 2
As usually defined, the Kd is a measure of binding affinity in units of concentration. Higher therefore signals lower affinity. In the case of B1, in experiment [1], the binding result is “binds”. Besides, in experiment [2], the “fold tighter than native IgG1” value is approximately 2.9 fold. In experiment [3], binding was characterised by a dissociation constant (Kd) of 96 nM.

B2: 9547 αCD19×αFcγRIIb mAb-Fv (bispecific antibody, IgG1)
heavy 1: EVQLVESGGGLVKPGGSLKLSCAASGYTFTSYVMHWVRQAPGKGLEWIGYINPYNDGTKYNEKFQGRVTISSDKSISTAYMELSSLRSEDTAMYYCARGTYYYGTRVFDYWGQGTLVTVSSASTKGPSVFPLAPSSKSTSGGTAALGCLVKDYFPEPVTVSWNSGALTSGVHTFPAVLQSSGLYSLSSVVTVPSSSLGTQTYICNVNHKPSNTKVDKKVEPKSCDKTHTCPPCPAPELLRGPSVFLFPPKPKDTLMISRTPEVTCVVVDVSHEDPEVKFNWYVDGVEVHNAKTKPREEQYNSTYRVVSVLTVLHQDWLNGKEYKCKVSNKARPAPIEKTISKAKGQPREPQVTTLPPSREEMTKNQVSLTCLVKGFYPSDIAVEWESNGQPENNYKTFPPVLDSDGSFFLYSKLTVDKSRWQQGNVFSCSVMHEALHNHYTQKSLSLSPGKGGGGSGGGGSGGGGSGGGGSGGGGSGGGGQVQLQQPVTELVRPGASVMLSCKASDYPFTNYWIHWVKQRPGQGLEWIGVIDPSDTYPNYNKKFKGKATLTVVVSSSTAYMQLSSLTSDDSAVYYCARNGDSDYYSGMDYWGQGTSVTVSSGSHHHHHH
heavy 2: EVQLVESGGGLVKPGGSLKLSCAASGYTFTSYVMHWVRQAPGKGLEWIGYINPYNDGTKYNEKFQGRVTISSDKSISTAYMELSSLRSEDTAMYYCARGTYYYGTRVFDYWGQGTLVTVSSASTKGPSVFPLAPSSKSTSGGTAALGCLVKDYFPEPVTVSWNSGALTSGVHTFPAVLQSSGLYSLSSVVTVPSSSLGTQTYICNVNHKPSNTKVDKKVEPKSCDKTHTCPPCPAPELLRGPSVFLFPPKPKDTLMISRTPEVTCVVVDVSHEDPEVKFNWYVDGVEVHNAKTKPREEQYNSTYRVVSVLTVLHQDWLNGKEYKCKVSNKARPAPIEKTISKAKGQPREPQVYTLPPSREEMTKNQVHLTCLVKGFYPSDIAVEWESNGQPENNYKTTPPVLDSDGSFALYSKLTVDKSRWQQGNVFSCSVMHEALHNHYTQKSLSLSPGKGGGGSGGGGSGGGGSGGGGSGGGGSGGGGDILLTQSPAILSVSPGERVSFSCRTSQSIGTNIHWYQQRTNGFPRLLIKNVSESISGIPSRFSGSGSGTDFILSINSVESEDIADYYCQQSNTWPFTFGGGTKLEIKGSHHHHHH
light: DIVMTQSPATLSLSPGERATLSCRSSKSLQNVNGNTYLYWFQQKPGQSPQLLIYRMSNLNSGVPDRFSGSGSGTEFTLTISSLEPEDFAVYYCMQHLEYPITFGAGTKLEIKRTVAAPSVFIFPPSDEQLKSGTASVVCLLNNFYPREAKVQWKVDNALQSGNSQESVTEQDSKDSTYSLSSTLTLSKADYEKHKVYACEVTHQGLSSPVTKSFNRGEC
notes: mAb-Fv, IgG1 G236R/L328R, hetero-Fc TF-HA, Linker 3; also called 9547 mAb-Fv; copies: 1 + 1 + 2
In the case of B2, the “fold tighter than native IgG1” value in experiment [4] is approximately 52 fold. The molecule further showed a Kd in experiment [5] of 44 nM.
